B1: MPV477 (antibody, V domains shown)
VH: EVQLVQSGAEVKKPGASVEVSCKTSGYTFTDYYLHWVRQAPGQGLEWMGWINPRSGGTKYGQKFQGRVTMTRDTSISTAYMDLRGLRSDDTAVYYCARAPLLTVYAVAHRSGENRFDPWGQGTVTVSS
VL: QPPSLSGAPGQTVTISCTGSGSNIGAGYDVNWYQCLPGTAPKLLMFDNSNRPSGVPDRFSGSRSGASASLAITGLQAEDEADYYCQSYDSGLSGWVFGGGTKLTVL
B2: MPV454 (antibody, V domains shown)
VH: EVQLVESGGGLVKPGGSLRLSCSTSGFVFSSYAMHWVRQAPGKGLEHVSAISSTGDNTHYADSVKGRFTISRDNSRGRLYLQMTSVRPEDAALYYCVKDLYSGRFYYFLDDWGQGTRIIVSS
VL: DIQVTQSPSSLSASVGDRVTISCRASQNISNYLNWFQQRPGKAPKLLIYVASTLQSGAPSRFSGSGSGTDFTLTITDLQPEDFATYYCQQSYNTPPITFGQGTRLEIK
B3: MPV485 (antibody, V domains shown)
V domain 1: EVQLQEPGPGLVKPSETLSLTCTVSGGSISSTNSFWGWVRQPPGKGLEWIGSIYYSGTTYYNSSLKSRVTISVDTSKNQFSLRLSSVTAADTAVYYCARQGLTSSWYDGSGLDVWG
V domain 2: SYELTQPPSVSVSPGQTASITCSGDKLGNKYACWYQQRPGQSPVLVIYQDTKRPSGIPERFSGSNSGNTATLTISGTQAMDEADYYCQAWDSNTVVFGGGTKLTVL
B4: MPV487 (antibody, V domains shown)
VH: EVQLLESGGGLVQPGRSLRLSCTASGFTFDDYAMHWVRQLPGKGLEWVSGISWNSDNIGYADSVKGRFTISRDNGKNSLYLQMNSLRAEDTAFYYCAKDVRIDYDLLIGHIDYWGPGTLVTVSS
VL: TQSPVTLSLSPGERATLSCRASQSFGGYCAWYQQKPGQSPRLLIYDASNRATGVPARFSGSGSGTDFTLTISSLEPEDSAVYFCQQRGNWPIFGQGTRLEI
B5: MPV86 (antibody, V domains shown)
VH: QVQLVQSGAEVKKPGSSVKVSCKASGDTFNDVALSWVRQAPGQGLEWLGGIIPFFGTANYAQRFQDRVTITADASTSTAYLELGGLRSEDTAVYYCARGWSCRNITCFMMGYYFYIMDVWGQGTLVTVSS
VL: LSLSPGERATLSCRASQSVGNFLAWYQQKPGQTPRLLIQDASNRATGIPARFSGTGSGTDFTLTISSLEPEDFAVYYCQQRSNWPPTFGPGTKVDIK
B6: MPV488 (antibody, V domains shown)
VH: EVQLVQSGFEVKKPGASVKVSCKASGYNFNNYGISWVRQAPGQGLEWMGWISAYTGNTNEAQKFQGRVSMTTDTSTSTAYMEVRSLRSDDTAVYYCARDIGSSMFYSYFYGMDVWGQGTTVIVSS
VL: SLSVSLGERATINCKSSESVLYNSNNENYLDWYQQKPGQPPKLLIYWASTRASGVPDRFSGSASGTDFTLTISSLQAEDVAVYYCQQYYSTPRTFGQGTKVEIK
B7: MPV482 (antibody, V domains shown)
VH: EVQLVQSGGGVVQPGRSLRLSCAASGFTFSSFAMHWVRQAPGKGLEWVALISDDGNNKYHADSVKGRFTISRDSSKNTLYLQMNSLRGEDTAVYYCARDGSVVGAAAHCDHWGQGTLVTVSS
VL: SYELTQPPSVSVSPGQTARITCSGDALPNQCAYWYQQKPGLAPVLLIYKDKERPSGIPERFSGSISGTTVTLTISGVQAEDEADYYCQSSDSSSTVVFGGGTKLTVL
B8: MPV486 (antibody, V domains shown)
VH: EVQLVESGGHLVQSGGSLRLSCAASGFTFSNYILNWVRQAPGKGLEWISYITGGSSAIYYADSVKGRFTISRDDAKNSLYLQMNNLRAEDTAVYYCARSHGYDSSGYYYYFAMDVWGQGTTVTVSS
VL: QSVLTQPPSASGTPGQRVTISCSGSNSNIESNTVNWYQQIPGTAPKLLIYSDNRRPSGVPDRFSGSKSGTSASLAISGLQSEDEADYYCAAWDDSLIGYVFGTGTKVTV
B9: MPV464 (antibody, V domains shown)
VH: QVQLQESGPGLVKPSQTLSLTCTVSGGSVRGGGDYWSWIRRPPGKGLEWIGHIYNSGTTFYNPSLKSRVTISIDTSKNQFSLKLRSVTAADTAVYYCGRVGSRATGLPDWIDPWGQGTLVTVSS
VL: SYELTQPPSVSVSPGQTATITCSGTNLGAKYSCWYQQKPGQSPVLVIFQDNKRASGIPARFSASTSGDTATLTISGTQVMDEADYFCQAWDSRTAVFGGGTTLTVL
B10: MPV414 (antibody, V domains shown)
VH: QVQLVQSGPEVKKPGSSVMVSCKTSGGNFNNFAISWVRQAPGQGLEWMGGIVPIFGTANYAQKSQDRVTITADPSSSTAYLQLSSLTSDDTAIYYCARDLGRSSNYYYYSVFESWGQGTLVTVSS
VL: DIVMTQSPATLSLSPGERATLSCRASQSVGDKLAWYQQKPGQAPRLLIYGASTRATDIPARFSGSGSGTEFTLTVSSLQPEDFAVYYCQQYENWPPITFGQGTRLEIK
B11: MPV491 (antibody, V domains shown)
VH: QVQLQESGPGLVKSSQTLSLTCTVSGGSISSVTSHWTWIRQHPGKGLEWIGYIFSSGTTYYSPSLRSRLTMSVDTSKNQFSLQLSSVTAADTAMYYCARGIYCGDSCYKGTDYWGRGTLVTVSS
VL: IRLMTQTPVTLPVTPGEPASISCRSSQSLLHSNGYNYLDWYLQKPGQSPQLLIYRGSTRASGVPDRFSGSGSGTEFTLKISRVEAEDVGVYYCMQGLQTPYTFGQGTKLESR
B12: MPV478 (antibody, V domains shown)
VH: EVQLVQSGAEVKKPGASVKVSCNASGYTFTGYYIHWVRQAPGQGLEWMGWINPRSGGTNYAQKFQGRVTLTRDTSITTAYMDVTRLRPDDTAVYYCATTREGIVLMPRGRGDDALDTWGQGTTVIVSS
VL: DIVMTQSPVSLTVSLGERATINCKSSQSVLSTSNNENYLAWYQQKPGQPPNLLIYWASTRESGVPDRFSGSGSGTDFTLTISSLQAEDVAVYYCQQYFATPITFGPGTKVDVK
B13: MPV489 (antibody, V domains shown)
VH: EVQLLESGGGLVQPGGSLRLSCAASKFTFNNYEMNWLRQAPGKGLEWVSSISSSGDTIHNADSVKGRFIISRDNAKNSLHLQMNGLRAEDTAVYYCARAGSGWAYDAFDIWGLGTMVTVSS
VL: LSASVGDRVTITCRASQSISSFLNWYQQKPGKAPKLLMYAASSLPVGVPSRFSGSGSGPEYTLTISNLQPEDFATYYCQQGYSSPPTFGGGTRLEVK
B14: MPV481 (antibody, V domains shown)
VH: EVQLVQSGGGLVKPGGSLRLSCAASGLPFNNAWMNWVRQAPGKGLEWVGRIKSKIDGGTTEYAAPVKGRFTISRDDSENTLYLQMNSLRTEDTAVYYCTTEYYALLSGNYSDCWGQGTLVTVSS
VL: DIVMTQSPFSLSLSPGERATLSCRASQSIKRAYLGWYQQKPGQAPRLLIYGASNRATGIPDRFSGSGSGTDFTLTISRLEPEDFAVYYCQQYGDSPGGSFGQGTKLEIR
B15: MPV483 (antibody, V domains shown)
VH: EVQLVQSGAELKKPGSSVKVSCKASGDTFSNYAISWVRQAPGQGLEWMGGIIPIYNTANYAQKFQGRVTLTADESTSTAYMELSSLRSEDTAVYYCARDVRNNWSVLRGARYYYYGMDVWGQGTTVTVSS
VL: DIVMTQTPFSLSASVGDRVTVTCRASQDISNSLAWFQQKPGKAPKSLIYAASSLQSGVPTRFSGGGSGTDFTLTISSLQPEDFATFYCLQYDSFPPTFGGGTKVEI
B16: MPV456 (antibody, V domains shown)
VH: QVQLQESGPGVVKPSGTLSLTCGVSGGSISSSYWWSWVRQPPGKGLEWIGEIYHSGSTNYNPSLKRRVTISVDKSKNQFSLKVTSVTAADTAVYYCARGPIQYYDILTEERVGYCDYWGQGTLVTVSS
VL: TLSASVGDRVTITCRASQSISSWLAWFQQKPGKAPKLLIYKTSSLESGVPSRFSGSGSGTEFTLTISSLQPDDFATYYCQEYNSYSRTFGQGTKVEIK

target: T1, hMPV F protein of hMPV CAN/97-83 (genotype A) (human metapneumovirus, UniProt Q6WB98 19-539); test: cell-based or functional assay
T1 sequence (Q6WB98 19-539): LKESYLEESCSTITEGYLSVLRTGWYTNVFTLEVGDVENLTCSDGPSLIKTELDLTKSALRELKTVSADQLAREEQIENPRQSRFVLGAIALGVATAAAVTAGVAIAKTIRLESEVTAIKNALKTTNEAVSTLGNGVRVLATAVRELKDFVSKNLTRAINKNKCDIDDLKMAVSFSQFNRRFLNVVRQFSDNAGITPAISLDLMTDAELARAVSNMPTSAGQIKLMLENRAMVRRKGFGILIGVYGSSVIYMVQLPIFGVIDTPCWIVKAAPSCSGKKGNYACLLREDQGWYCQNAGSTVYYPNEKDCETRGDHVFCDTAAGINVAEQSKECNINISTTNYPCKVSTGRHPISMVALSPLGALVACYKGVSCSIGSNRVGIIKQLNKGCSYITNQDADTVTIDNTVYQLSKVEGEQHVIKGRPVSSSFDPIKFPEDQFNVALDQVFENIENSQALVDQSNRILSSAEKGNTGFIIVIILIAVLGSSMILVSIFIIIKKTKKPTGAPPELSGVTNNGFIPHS

Row | Binder | fold lower neutralization IC50 than against hMPV TN/93-32 [fold] | neutralizing activity, plaque-reduction assay [ng/mL]
1 | B1 | ≥ 20 | –
2 | B2 | – | < 20
3 | B3 | ≥ 20 | –
4 | B4 | – | < 20
5 | B5 | ≥ 20 | –
6 | B6 | ≥ 20 | < 20
7 | B7 | – | < 20

target: T1, hMPV F protein of hMPV CAN/97-83 …; test: cell-based or functional assay; remark: another data set of the same source

Row | Binder | IC50, plaque-reduction neutralization of hMPV CAN/97-83 [µg/mL]
8 | B1 | 0.054
9 | B8 | 0.51
10 | B9 | 0.14
11 | B2 | 0.002
12 | B10 | 0.044
13 | B11 | 5.7
14 | B3 | 0.091
15 | B4 | 0.003
16 | B12 | 0.21
17 | B5 | 0.057
18 | B13 | 3.6
19 | B6 | 0.018
20 | B7 | 0.014
21 | B14 | 0.096
22 | B15 | 0.032
23 | B16 | 0.45

target: hMPV F protein of hMPV TN/93-32 (genotype B) (human metapneumovirus); test: cell-based or functional assay

Row | Binder | IC50, plaque-reduction neutralization of hMPV TN/93-32 [µg/mL]
24 | B1 | 2.9
25 | B8 | 0.062
26 | B9 | 0.4
27 | B2 | 0.025
28 | B10 | 0.59
29 | B11 | 1.9
30 | B3 | 2.6
31 | B4 | 0.012
32 | B12 | 0.068
33 | B5 | 1.8
34 | B13 | 2.3
35 | B6 | 2.4
36 | B7 | 0.047
37 | B14 | 0.26
38 | B15 | 0.11
39 | B16 | 0.81
